These results are taken from US20190298743A1, “TREATMENT OF PAIN” (Takeda Pharmaceutical Company Limited, priority 2016, published 2019).

The test system of assay [1] is PAR2. Briefly: BRET receptor trafficking, PAR2-RLuc8 with plasma membrane marker RIT-venus in HEK293 cells. Particulars: trypsin 10 nM. The format is cell-based. How it is done:
(§1) Bret studies of receptor trafficking were conducted to quantify PAR2 internalisation (RIT-venus) and trafficking to early endosomes (Rab5a-venus) upon stimulation with different agonists.
(§2) After achieving ˜50% confluency within 10 cm dishes HEK293 cells were transiently transfected with 1 μg PAR2-RLuc8 and 4 μg of either RIT-venus or Rab5a-venus using PEI as a transfection agent. 24 hours post transfection, cells were seeded into poly-D-lysine coated 96-well isoplates. […] When used endocytic inhibitors were diluted in 1×HBSS+1% dimethyl sulfoxide (DMSO). Following the replacement of culture media cells were allowed to equilibrate at 37° C. for 30 minutes before the addition of colenterazine H [5 μM]. After a further 5 minute incubation BRET was assessed using a LUMIstar Omega microplate reader (BMG LabTech, Offenburg, Germany), with luminescence being read at 535 nm and 475 nm. A 4 minute baseline was obtained before the addition of vehicle (1×HBSS+/−1% DMSO) or protease, measurements were then continued for a further 30 minutes. BRET ratios were calculated using LUMIstar MARS analysis software and then corrected to baseline and vehicle treatments in Microsoft Excel 2013.
A general note: In BRET a luciferase serves as donor, and the signal depends on an acceptor being close.

The subject of assay [2] is PAR2. As to the kind of experiment: BRET receptor trafficking, PAR2-RLuc8 with early endosomal marker Rab5a-venus in HEK293 cells. In kind it is cell-based. Particulars: trypsin 10 nM. How it is done: as §1, §2
Another assay deals with DRG neurons. As to the kind of experiment: Perforated patch-clamp excitability (rheobase) of isolated DRG neurons. Particulars: 0 min and 30 min after washing. The format is cell-based, mice. The protocol: To assess the effects of proteases on excitability of nociceptors, DRG neurons were preincubated with trypsin, cathepsin S, elastase or vehicle (control), washed, and rheobase and action potential discharge at a current of twice rheobase were measured at 0 min or 30 min after washing.
DRG (T9-T13) from C57BL/6 mice were digested by incubation in collagenase (1 mg/ml, Worthington Biochemical, Lakewood, N.J.) and dispase (4 mg/ml, Roche Life Science, Indianapolis, Ind.) for 10 min at 37° C., and were dispersed by trituration with a fire-polished Pasteur pipette. Cells were plated onto coverslips coated with laminin (0.017 mg/ml) and poly-D-lysine (2 mg/ml) in 24-well plates. […]
Neuronal excitability was assessed by perforated patch-clamp recordings with amphotericin B (240 μg/ml) from small diameter neurons (<30 pF capacitance) in current clamp mode at room temperature. Only neurons with resting membrane potentials more negative than −40 mV were analyzed. Changes in excitability were quantified by measuring rheobase (minimum current to fire action potential) and numbers of action potentials discharged at twice rheobase. […]
Results are expressed as mean±SE. […]
On the technique in general: The patch-clamp technique gives a direct electrical read-out from membranes.

A short description of assay [3]: Protease-evoked mechanical hyperalgesia, von Frey paw withdrawal. The format is in vivo, mice. Particulars: ipsilateral paw. How it is done:
(§3) Immediately before experiments the mice were acclimatized to the experimental apparatus, room and investigator for 1-2 h on 2 successive days. Mechanical nociceptive responses were evaluated by paw withdrawal to stimulation of the plantar surface of the hind-paw with calibrated von Frey filaments. von Frey scores were measured in triplicate to establish a baseline for each animal on the day before experiments. Paw edema was estimated by measuring the thickness of the hindpaw using digital calipers before and after treatments. Mice were […] with 5% isoflurane for intraplantar injections. Dyngo4a (50 μM), PitStop2 (50 μM) or vehicle (0.2% DMSO in 0.9% NaCl) (all 10 μl) were injected into the left hindpaw. After 30 min, trypsin (10 nM), Cat-S (2.5 μM) or elastase (30 U) (all 10 μl) were injected into the same left hindpaw. von Frey scores (left and right paws) and paw thickness (left paw) were measured hourly for up to 4 h after protease injection. Investigators were blinded to the test agents.

The nature of assay [4]: Protease-evoked paw edema, hindpaw thickness. The format is in vivo, mice. The note with it: ipsilateral paw. The protocol: as §3
The test system of assay [5] is PAR2. Briefly: BRET proximity of PAR2 to KRas (plasma membrane) and Rab5a (endosomes) in HEK cells. In kind it is cell-based. Particulars: HEK cells. The protocol:
(§4) The contribution of endocytosis of protease-activated receptor-2 (PAR2) was evaluated for generation of signals in subcellular compartments that mediate protease-evoked sensitization of nociceptors. Bioluminescence resonance energy transfer (BRET) was used to assess the proximity of PAR2 to resident proteins of the plasma membrane (KRas) and endosomes (Rab5a) in HEK cells. […] Förster resonance energy transfer (FRET) biosensors targeted to the plasma membrane, cytosol or nucleus were used to examine the capacity of proteases to generate signals in subcellular compartments of HEK cells and rat dorsal root ganglia neurons. […] Dynamin inhibitor Dyngo4a, Clathrin inhibitor Pitstop2 and dominant negative β-arrestin inhibited trypsin-evoked endocytosis of PAR2, and prevented trypsin-evoked activation of cytosolic cAMP and PKC and nuclear ERK. […] To examine the link between PAR2 endocytosis, compartmentalized signaling and nociceptor sensitization, perforated patch clamp recordings were made from mouse dorsal root ganglia neurons. […] The effects of proteases on excitability were blocked by the PAR2 antagonist GB88. Thus, canonical and biased proteases sensitize nociceptors by distinct mechanisms. For canonical agonists, PAR2 endocytosis generates compartmentalized signals subcellular compartments that underlie sustained excitability of nociceptive neurons. […]

The subject of assay [6] is PAR2. Briefly: FRET biosensors for compartmentalised cAMP, PKC and ERK signals in HEK cells and rat dorsal root ganglia neurons. The format is cell-based. How it is done: as §4

B1: cathepsin S: biased agonist protease of PAR2 (protein, UniProt P25774 115-331, looked up)
Cathepsin S: LPDSVDWREKGCVTEVKYQGSCGACWAFSAVGALEAQLKLKTGKLVSLSAQNLVDCSTEKYGNKGCNGGFMTTAFQYIIDNKGIDSDASYPYKAMDQKCQYDSKYRAATCSKYTELPYGREDVLKEAVANKGPVSVGVDARHPSFFLYRSGVYYEPSCTQNVNHGVLVVGYGDLNGKEYWLVKNSWGHNFGEEGYIRMARNKGNHCGIASFPSYPEI
As to B1, the “Change in BRET between PAR2 and plasma membrane marker upon agonist stimulation” value in the assay with PAR2 [1] is listed as “not observed”. For the same molecule, the “Change in BRET between PAR2 and early endosomal marker upon agonist stimulation” value in the assay on PAR2 [2] is recorded as “not observed”. In addition, in the assay on DRG neurons, the “Effect of protease on excitability (rheobase) of DRG neurons” value is recorded as “immediate increase in excitability”. Further, the “Mechanical hyperalgesia after intraplantar injection of protease” value in assay [3] was “caused mechanical hyperalgesia of the ipsilateral paw that was sustained for at least 4 h”. Also, the “Edema after intraplantar injection of protease” value in assay [4] is reported as “edema of the ipsilateral paw that was maximal after 4 h”. Besides, in the assay on PAR2 [5], the “PAR2 endocytosis induced by agonist” value was “did not induce PAR2 endocytosis”. In addition, the “Signals generated by protease in subcellular compartments” value in the assay with PAR2 [6] was “only activated cAMP and PKC at the plasma membrane and ERK in the cytosol”.
